Experiments:
[1] = target: T1, hOPN5 peptide CVDTYDGRGDSVVYGLRS conjugated to bovine serum albumin (human, N-terminal Cys coupled to BSA (via EMCS in section 6.2)); experiment: ELISA, hOPN5-BSA coated at 1 ug/ml, HRP anti-human gamma chain, A405
T1 construct: also called hOPN5-BSA; hOPN-BSA
T1 peptide: CVDTYDGRGDSVVYGLRS
Description: The affinity of humanized 35B6 IgG1/κ was compared to that of chimeric 35B6 IgG1/κ by ELISA. As an antigen, synthetic oligopeptide ([…] (SEQ ID NO:79) conjugated to bovine serum albumin (hOPN5-BSA) was used. In a typical experiment, an ELISA plate was coated with 100 μl/well of 1 μg/ml hOPN-BSA in PBS overnight at 4° C., washed with Wash Buffer, and blocked with 300 μl/well of Blocking Buffer for 1 hr at room temperature. After washing with Wash Buffer, 100 μl/well of samples appropriately diluted in ELISA Buffer were applied to the ELISA plate. After incubating the ELISA plate overnight at 4° C. and washing with Wash Buffer, bound antibodies were detected using 100 μl/well of 1/2,000-diluted HRP-conjugated goat anti-human γ chain polyclonal antibody (SouthernBiotech). After incubating for 1 hr at room temperature and washing with Wash Buffer, color development was performed by adding 100 μl/well of ABTS substrate and stopped with 100 μl/well of 2% oxalic acid. Absorbance was read at 405 nm. As shown in FIG. 41A-41B, the binding of humanized 35B6 IgG1/κ to hOPN5-BSA was similar to (FIG. 41A) or indistinguishable from (FIG. 41B) that of chimeric 35B6 IgG1/κ.

[2] = target: T1, hOPN5 peptide CVDTYDGRGDSVVYGLRS …; experiment: ELISA, BSA-coupled peptide coated at 10 ug/ml, HRP anti-murine IgG, A490
[3] = target: T2, mOPN5 peptide CVDVPNGRGDSLAYGLR (murine, N-terminal Cys coupled to BSA via EMCS (ELISA of section 6.2)); experiment: as above
T2 construct: BSA conjugate in section 6.2; 'antigen peptide solid phase' in the hybridoma screen of section 6.1; also called antigen peptide
T2 peptide: CVDVPNGRGDSLAYGLR

[4] = target: T3, peptide CGRGDSLAYGLR (murine, N-terminal Cys coupled to BSA via EMCS); experiment: as above
T3 construct: Synthetic peptide, BSA conjugate on the ELISA plate
T3 peptide: CGRGDSLAYGLR

[5] = target: T4, peptide CGDSLAYGLR (murine, N-terminal Cys coupled to BSA via EMCS); experiment: as above
T4 peptide: CGDSLAYGLR

[6] = target: T5, peptide CGDSLAYG (murine, N-terminal Cys coupled to BSA via EMCS); experiment: as above
T5 construct: Synthetic peptide, BSA conjugate on the ELISA plate
T5 peptide: CGDSLAYG

[7] = target: T6, peptide CGRGDS (human and murine, N-terminal Cys coupled to BSA via EMCS); experiment: ELISA, BSA-coupled peptide coated at 10 ug/ml
T6 construct: Synthetic peptide, BSA conjugate on the ELISA plate
T6 peptide: CGRGDS
From the text: (§1) Peptides of amino acid sequence of […] (mOPN1) (SEQ ID NO:73), […] (mOPN5) (SEQ ID NO:71), […] (SEQ ID NO:74), CPNGRGD (SEQ ID NO:75), […] (SEQ ID NO: 76) […] (SEQ ID NO: 77), […] (SEQ ID NO:78) and […] (SEQ ID NO:72) which include murine OPN derived partial peptide, a peptide of amino acid sequence […] (SEQ ID NO:79) and […] (SEQ ID NO:80) which include human OPN derived partial peptide, and a peptide of amino acid sequence CGRGDS (SEQ ID NO:81) which include common peptide sequence of human OPN and murine OPN were coupled to BSA (Sigma corporation) via EMCS (Dojin) and used for ELISA.
(§2) A 96 well plate was immobilized with peptides (10 μg/ml) or proteins (5 μg/ml) by cultivating at 37° C. for an hour, blocked with 0.1% BSA/PBS/0.05% NaN₃ solution, and then reacted with various concentrations of antibodies at 37° C. for an hour. Next, the plate was reacted with HRP labeled anti-murine IgG antibody (Jackson ImmunoResearch Laboratories, Inc.) as secondary antibody at 37° C. for 30 minutes, added OPD as chromogen, added 1N H₂SO₄ to stop the reaction, and then detected absorbance at 490 nm.

[8] = target: T7, peptide CVDVPNGRGDS (murine, N-terminal Cys coupled to BSA via EMCS); experiment: ELISA, BSA-coupled peptide coated at 10 ug/ml
T7 construct: Synthetic peptide, BSA conjugate on the ELISA plate
T7 peptide: CVDVPNGRGDS
From the text: as §1, §2

[9] = target: T8, peptide CPNGRGD (murine, N-terminal Cys coupled to BSA via EMCS); experiment: ELISA, BSA-coupled peptide coated at 10 ug/ml
T8 construct: Synthetic peptide, BSA conjugate on the ELISA plate
T8 peptide: CPNGRGD
From the text: as §1, §2

[10] = target: T9, murine osteopontin (murine, UniProt P10923 17-294); experiment: ELISA, protein coated at 5 ug/ml, HRP anti-murine IgG, A490
T9 construct: mature; Secreted recombinant protein; also called mOPN; murine OPN
T9 sequence (P10923 17-294): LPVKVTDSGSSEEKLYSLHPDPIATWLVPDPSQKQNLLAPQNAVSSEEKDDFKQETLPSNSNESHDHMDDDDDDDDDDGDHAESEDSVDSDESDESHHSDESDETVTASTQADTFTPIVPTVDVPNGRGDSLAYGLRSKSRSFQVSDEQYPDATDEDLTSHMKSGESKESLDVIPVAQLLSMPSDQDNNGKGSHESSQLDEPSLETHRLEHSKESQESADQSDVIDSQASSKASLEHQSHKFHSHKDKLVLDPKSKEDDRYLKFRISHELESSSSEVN
Description: as §2, with “Binding ability of the monoclonal antibodies 33E10 and 35B6 to ECM proteins was detected by ELISA using 96 well plate immobilized with hOPN, mOPN, FN, VN or laminin obtained above. A 96” for “A 96”

[11] = target: T10, human osteopontin (human, UniProt P10451 17-314); experiment: as above
T10 construct: mature; Secreted recombinant protein; also called hOPN; human OPN
T10 sequence (P10451 17-314): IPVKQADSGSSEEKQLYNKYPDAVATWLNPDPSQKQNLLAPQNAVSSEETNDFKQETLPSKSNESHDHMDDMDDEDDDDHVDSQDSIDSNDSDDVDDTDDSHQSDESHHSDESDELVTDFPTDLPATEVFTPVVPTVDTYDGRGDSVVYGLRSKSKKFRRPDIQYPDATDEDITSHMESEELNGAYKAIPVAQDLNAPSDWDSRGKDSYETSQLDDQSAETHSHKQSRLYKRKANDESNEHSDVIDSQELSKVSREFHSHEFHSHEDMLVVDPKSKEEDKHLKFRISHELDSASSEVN
Description: as §2, with “Binding ability of the monoclonal antibodies 33E10 and 35B6 to ECM proteins was detected by ELISA using 96 well plate immobilized with hOPN, mOPN, FN, VN or laminin obtained above. A 96” for “A 96”

[12] = target: T6, peptide CGRGDS; experiment: ELISA, BSA-coupled peptide coated at 10 ug/ml, HRP anti-murine IgG, A490
[13] = target: T7, peptide CVDVPNGRGDS; experiment: as above
[14] = target: T8, peptide CPNGRGD; experiment: as above
[15] = target: T11, peptide CSVVYGLR (human, N-terminal Cys coupled to BSA via EMCS); experiment: ELISA, BSA-coupled peptide coated at 10 ug/ml
T11 construct: Synthetic peptide, BSA conjugate on the ELISA plate
T11 peptide: CSVVYGLR
From the text: as §1, §2

[16] = target: T12, peptide CSLAYGLR (murine, N-terminal Cys coupled to BSA via EMCS); experiment: ELISA, BSA-coupled peptide coated at 10 ug/ml
T12 construct: Synthetic peptide, BSA conjugate on the ELISA plate
T12 peptide: CSLAYGLR
From the text: as §1, §2

[17] = target: T13, human vitronectin (human, UniProt P04004 20-478); experiment: ELISA, protein coated at 5 ug/ml, HRP anti-murine IgG, A490
T13 construct: Bought protein; also called VN
T13 sequence (P04004 20-478 limits assumed): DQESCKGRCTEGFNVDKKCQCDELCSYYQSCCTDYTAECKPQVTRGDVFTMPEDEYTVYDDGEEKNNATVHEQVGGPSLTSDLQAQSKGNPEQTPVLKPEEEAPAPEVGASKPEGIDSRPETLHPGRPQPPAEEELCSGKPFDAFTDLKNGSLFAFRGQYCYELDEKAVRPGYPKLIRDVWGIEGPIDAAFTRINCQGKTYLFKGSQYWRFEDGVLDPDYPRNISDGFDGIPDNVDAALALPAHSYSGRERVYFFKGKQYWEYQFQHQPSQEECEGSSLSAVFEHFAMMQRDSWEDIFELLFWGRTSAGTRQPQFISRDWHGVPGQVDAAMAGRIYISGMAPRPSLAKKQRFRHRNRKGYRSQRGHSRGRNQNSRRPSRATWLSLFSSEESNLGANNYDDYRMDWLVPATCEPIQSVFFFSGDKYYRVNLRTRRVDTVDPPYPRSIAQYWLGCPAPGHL
Description: as §2, with “Binding ability of the monoclonal antibodies 33E10 and 35B6 to ECM proteins was detected by ELISA using 96 well plate immobilized with hOPN, mOPN, FN, VN or laminin obtained above. A 96” for “A 96”

B1: humanized 35B6 IgG1/kappa antibody (antibody, V domains shown)
VH: QVQLVQSGAEVKKPGASVKVSCKASGYTFTNYWMHWVRQAPGQGLEWIGNINPRNGDSNYNEKFRSKASLTVDKSTSTVYMELSSLRSEDTAVYYCARGYFDVWGQGTTVTVSS
VL: DIQMTQSPSSLSASVGDRVTITCKASQDINSYLSWFQQKPGKAPKTLIYRANRLVDGVPSKFSGSGSGQDFTLTISSLQPEDFATYYCLQYDEFPFTFGQGTKLEIK
notes: Tested as culture supernatant of transiently transfected HEK293 cells; also called Hu35B6
B1: binds [1].

B2: mouse anti-RGD monoclonal antibody 35B6 (FERM BP-10441) (antibody, mouse IgG1, V domains shown)
VH: QVQLQQPGTELVKPGASVKLSCKASGYTFTNYWMHWVKQRPGQGLEWIGNINPRNGDSNYNEKFRSKASLTVDKSSSTVYMQLSSLTSEDSAVYYCARGYFDVWGTGTTVTVSS
VL: DIKMTQSPSSMYASLGERVSITCKASQDINSYLSWFQQKSGKSPKTLIYRANRLVDGVPSRFSGSGSGQDFSLTISSLEYEDMGIYYCLQYDEFPFTFGSGTKLEIK
notes: Mouse IgG1 from hybridoma
B2: binds [2]; binds [3]; binds [4]. B2: binds [5]; binds [6]; no binding [7]. B2: no binding [8]; no binding [9]; binds [10]. B2: binds [11].

B3: chimeric 35B6 IgG1/kappa antibody (antibody, V domains shown)
VH: B2 VH
VL: B2 VL
notes: Tested as culture supernatant of transiently transfected HEK293 cells; also called Ch35B6
B3: binds [1].

B4: mouse anti-RGD monoclonal antibody 33E10 (FERM BP-10440) (antibody, mouse IgG1, V domains shown)
VH: EVKLVESGGGLVQPGGSLSLSCAASGFTFTDYYMIWVRQPPGKALEWLGFIRNKANGYTTEYSASVKGRFTISRDNSQSILYLQMNALRAEDSATYYCARGAYWGQGTLVTVSA
VL: DVLMTQTPLSLPVSLGDQASISCRSSQSIVHSNGNTYLEWYLQKPGQSPKLLIYRVSNRFSGVPDRFSGSGSGTDFTLKISRVEAEDLGVYYCFQGSFVPWTFGGGTKLEIK
notes: Mouse IgG1 from hybridoma, purified on an antigen peptide column
B4: binds [2]; binds [3]; binds [12]. B4: binds [13]; binds [14]; no binding [15]. B4: no binding [16]; binds [10]; binds [17]. B4: binds [11].
